Kd data for three molecules are collected here from paper doi:10.1101/2024.03.15.585299, “Biochemical analysis of the endoribonuclease activity of the human mitochondrial topoisomerase 1”.

The labels stand for the following.
B1: Substrate C (dsDNA)
DNA 1: ACTCGTCACGAGAGAGATGCCACGGTATTTCAAA
DNA 2: TTTGAAATACCGTGGCATCTCTCTCGTGACGAGT
B2: Substrate D (dsDNA)
DNA 1: B1 DNA 1
DNA 2: B1 DNA 2
modifications: single ribonucleotide rG at position 16 of top strand (2 nt upstream of cleavage site), rest DNA
B3: Substrate A (dsDNA)
DNA 1: AGCGTTGAAGATATGTGGCAAAACCTTTGT
DNA 2: ACAAAGGTTTTGCCACATATCTTCAACGCT

The target in one data set is T1, scTop1 catalytically inactive (Y272F as printed) (Saccharomyces cerevisiae, UniProt P04786 1-769, Y727F).
T1 sequence: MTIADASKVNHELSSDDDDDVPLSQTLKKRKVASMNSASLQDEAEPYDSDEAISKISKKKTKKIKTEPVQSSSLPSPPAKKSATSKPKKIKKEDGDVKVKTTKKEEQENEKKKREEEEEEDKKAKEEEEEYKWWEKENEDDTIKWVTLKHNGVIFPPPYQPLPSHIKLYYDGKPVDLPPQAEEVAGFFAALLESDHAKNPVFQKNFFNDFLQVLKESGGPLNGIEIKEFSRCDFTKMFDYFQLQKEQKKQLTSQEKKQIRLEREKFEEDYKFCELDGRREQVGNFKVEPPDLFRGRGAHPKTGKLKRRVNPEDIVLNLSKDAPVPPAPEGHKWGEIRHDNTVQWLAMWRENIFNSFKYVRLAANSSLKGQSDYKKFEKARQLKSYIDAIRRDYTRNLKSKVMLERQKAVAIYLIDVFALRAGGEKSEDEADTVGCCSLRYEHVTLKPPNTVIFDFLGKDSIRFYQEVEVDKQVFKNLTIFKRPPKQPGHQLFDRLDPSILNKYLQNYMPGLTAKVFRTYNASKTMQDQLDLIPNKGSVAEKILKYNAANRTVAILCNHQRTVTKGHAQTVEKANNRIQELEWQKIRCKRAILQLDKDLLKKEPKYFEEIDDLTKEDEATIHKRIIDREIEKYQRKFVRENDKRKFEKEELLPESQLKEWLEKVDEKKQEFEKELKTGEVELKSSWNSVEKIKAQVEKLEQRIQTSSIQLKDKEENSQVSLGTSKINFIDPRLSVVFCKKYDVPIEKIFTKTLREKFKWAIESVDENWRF
Put plainly: fluorescence anisotropy; 20 mM Tris pH 8, 66 mM NaCl, 1 mM DTT, 10% glycerol, 25 C, 10 min; 0.5 nM dsDNA, 0-60 nM Top1. The note with it: protein: recombinant; tags: GST removed by 3C protease; label: 5'-FAM top strand; blunt.
As to B1, the Kd (in general, the constant that tells how readily two partners part at equilibrium) was found to be 9.47 nM.
Consider B2, for which the Kd was determined as 8.75 nM.
Same read-out and setting: for B3 the value was 3.55 nM.

The next data set deals with hTop1-Y723F (catalytically inactive) (Homo sapiens, UniProt P11387 1-765, Y723F). The description is as above. As to conditions: protein: recombinant; tags: GST removed by 3C protease; label: 5'-FAM top strand; blunt.
Sequence of hTop1-Y723F (catalytically inactive) (P11387 whole entry Y723F): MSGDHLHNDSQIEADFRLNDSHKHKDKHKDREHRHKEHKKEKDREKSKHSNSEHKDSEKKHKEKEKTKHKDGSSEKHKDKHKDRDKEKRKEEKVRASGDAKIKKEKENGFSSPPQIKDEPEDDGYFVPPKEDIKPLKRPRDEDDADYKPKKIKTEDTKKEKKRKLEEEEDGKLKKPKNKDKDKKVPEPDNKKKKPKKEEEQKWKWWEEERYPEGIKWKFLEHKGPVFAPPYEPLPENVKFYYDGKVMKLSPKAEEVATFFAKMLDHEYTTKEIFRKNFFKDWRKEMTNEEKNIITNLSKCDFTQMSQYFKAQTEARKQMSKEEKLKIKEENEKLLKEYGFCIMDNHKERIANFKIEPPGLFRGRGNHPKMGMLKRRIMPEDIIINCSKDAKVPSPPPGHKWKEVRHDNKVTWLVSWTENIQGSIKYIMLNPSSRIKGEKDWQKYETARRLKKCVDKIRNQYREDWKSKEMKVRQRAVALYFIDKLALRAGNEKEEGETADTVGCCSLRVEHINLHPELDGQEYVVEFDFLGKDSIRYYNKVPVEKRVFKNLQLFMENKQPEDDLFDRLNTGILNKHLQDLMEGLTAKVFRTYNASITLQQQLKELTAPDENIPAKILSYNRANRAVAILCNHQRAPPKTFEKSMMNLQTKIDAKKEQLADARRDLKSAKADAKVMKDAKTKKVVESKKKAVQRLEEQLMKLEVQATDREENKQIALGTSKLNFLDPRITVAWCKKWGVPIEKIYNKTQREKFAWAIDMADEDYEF
In the case of B1, the Kd was found to be 1.26 nM.
Same read-out and setting: to B2 belongs 1.36 nM; to B3, 1.16 nM.

For a further data set, the target named is T2, hTop1mt-Y559F (catalytically inactive) (Homo sapiens, UniProt Q969P6 51-601, Y559F).
T2 sequence: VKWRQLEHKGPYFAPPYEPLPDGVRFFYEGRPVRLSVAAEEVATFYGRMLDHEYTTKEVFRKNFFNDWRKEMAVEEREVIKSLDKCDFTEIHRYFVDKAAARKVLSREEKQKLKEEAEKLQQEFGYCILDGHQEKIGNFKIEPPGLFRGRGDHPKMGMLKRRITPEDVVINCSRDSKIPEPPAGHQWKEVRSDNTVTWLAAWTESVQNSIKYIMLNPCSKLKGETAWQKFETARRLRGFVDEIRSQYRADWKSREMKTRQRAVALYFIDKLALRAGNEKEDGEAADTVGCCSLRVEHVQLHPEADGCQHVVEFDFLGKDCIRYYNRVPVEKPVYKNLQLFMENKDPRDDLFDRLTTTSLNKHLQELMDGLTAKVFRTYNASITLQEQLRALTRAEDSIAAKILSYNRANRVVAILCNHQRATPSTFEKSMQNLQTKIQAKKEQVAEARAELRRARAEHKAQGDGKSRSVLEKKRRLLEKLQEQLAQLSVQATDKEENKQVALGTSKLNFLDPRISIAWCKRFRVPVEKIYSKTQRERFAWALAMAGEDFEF
Described as above. The note with it: protein: recombinant; tags: GST removed by 3C protease; label: 5'-FAM top strand; blunt.
As to B1, the Kd came to 4.57 nM.
Same read-out and setting: to B2 belongs 2.29 nM; to B3, 3.5 nM.
